# Data reported in US11369662B2 (The Medical College of Wisconsin, Inc., priority 2014, dated 2022).
# Tests used:
# CXCR4 (Y7A, Y12A, Y21A) = target: T1, CXCR4 (Y7A, Y12A, Y21A) (Homo sapiens, UniProt P61073, Y12A/Y21A/Y7A); assay: Calcium flux in CHO-K1 cells, FLAG-tagged CXCR4 with Y7A, Y12A and Y21A; type: cell-based
# T1 construct: expressed in transfected cells; host or cells: CHO-K1 stably expressing Galpha15 (transient)
# Description: Cell culture. Chinese hamster ovary K1 (CHO-K1) cells, stably transfected with the Gα15 gene in pcDNA3.1+, were cultured in a 1:1 mixture of Dulbecco's modified Eagle medium (DMEM) with Glutamax (Gibco):F12 nutrient mixture (Gibco) supplemented with 10% (w/v) fetal bovine serum (FBS) (Gibco). Stable expression of the Gα15 transgene was maintained by further supplementing the growth medium with 700 μg ml^−1 geneticin (Gibco).
# Transfections. For transient transfections with the Flag-CXCR4 WT and N-terminally mutated constructs, the CHO-K1 Gα15 stable cells were lifted using 0.25% (v/v) trypsin-EDTA (Gibco), and 2×10^6 cells were re-plated onto 10 cm culture dishes. […] The cells were transfected 24 hours later using the Mirus TransIT-CHO Transfection Kit according to the manufacturers protocol, with the following exceptions: the amount of CHO transfection reagent was scaled up to 4 μl μg^−1 of DNA in the transfection mixtures, and the amount of CHO mojo reagent was scaled up to 1 μl μg^−1 of DNA in the mixtures. […]
# Calcium flux. […] Fluorescence was measured at 310 K using a FlexStation2 Microplate Reader with excitation and emission wavelengths at 485 nm and 515 nm, respectively. […] CXCR4 variants with EC50 or maximum calcium response values more than three standard deviations from the mean CXCR4WT quantities were deemed significant.
# CXCR4 = target: T2, CXCR4 (Homo sapiens, UniProt P61073); assay: CXCR4 internalization assay in HeLa cells; type: cell-based; settings: 80 ng/ml, 20 min, FACS surface expression
# T2 construct: purchased Millipore
# Description: CXCR4 internalization assay. HeLa cells grown on 6-cm dishes were washed twice with PBS and detached from the surface of the plate by incubating with 350 μl Cellstripper cell dissociation solution (Mediatech, Va.) for 10 min at 37° C. Cells were collected in 4 ml PBS containing 0.1% BSA (Media Tech, Va.) by centrifugation. Cell pellets were re-suspended in 1.5 ml PBS-0.1% BSA and 5×10^5 cells were transferred to a fresh 5 ml polystyrene round bottom tube (BD falcon) and washed once with PBS+0.1% BSA and re-suspended in 250 μl PBS-0.1% BSA. […] Following treatment, 4 mL cold PBS was added to each tube, cells were collected by centrifugation and then fixed by re-suspending the pellet in 500 μl 4% paraformaldehyde (made in PBS) and incubating for 15 min at 37° C. Cells were collected by centrifugation and washed once with 4 mL PBS and then twice with PBS-0.1% BSA. […] CXCR4 surface expression was analyzed by flow cytometry (FACS-CANTO; Becton Dickinson) and analysis was performed using FlowJo v.9.3 software.
# CXCR4 internalization assay. […] CXCR4 surface expression was analyzed by flow cytometry (FACS-CANTO; Becton Dickinson) and analysis was performed using FlowJo v.9.3 software.
# T1 sequence (P61073 whole entry Y7A/Y12A/Y21A): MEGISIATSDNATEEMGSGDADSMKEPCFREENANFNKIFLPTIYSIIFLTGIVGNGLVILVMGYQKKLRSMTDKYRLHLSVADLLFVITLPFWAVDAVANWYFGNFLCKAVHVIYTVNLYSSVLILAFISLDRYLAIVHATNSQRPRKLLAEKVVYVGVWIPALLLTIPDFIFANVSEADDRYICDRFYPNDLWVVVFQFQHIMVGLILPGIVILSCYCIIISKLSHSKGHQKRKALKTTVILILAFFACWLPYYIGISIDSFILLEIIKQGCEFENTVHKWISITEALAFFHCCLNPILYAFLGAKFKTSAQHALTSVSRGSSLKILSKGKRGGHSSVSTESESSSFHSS
# T2 sequence (P61073 whole entry): as the sequence (P61073 whole entry Y7A/Y12A/Y21A) above, with A7Y, A12Y, A21Y counted along it
"efficacy (maximum calcium response) (CXCR4 (Y7A, Y12A, Y21A))",CXCR4 internalization (CXCR4),Substance,"potency (calcium response) (CXCR4 (Y7A, Y12A, Y21A); relative to CXCR4(Y21A))"
~20 % of the wildtype receptor,,"CXCL12WT: wild type CXCL12 (stromal cell-derived factor-1/SDF-1), SEQ ID NO:1",did not further diminish the potency relative to CXCR4(Y21A)
,nominal internalization,CXCL122: constitutively dimeric variant of CXCL12 containing L36C/A65C mutations,
